Measured values reported in PMC3904923 (2014).

Tests used:
[1] = biological target: T1, dansylated calmodulin (rat, UniProt P0DP30 1-149, dansyl group covalently bound to CaM (position not given)); experiment: absence of Ca2+
[2] = biological target: T1, dansylated calmodulin; experiment: 3.9 uM Ca2+ (poor 1:1 fit, Bmax constrained)

B1: Kv7.2 CaM binding domain (residues 310–548), Q2AB WT (domain or fragment)
chain: not shown
Kd [1]: 4.8 nM | Kd [2]: 21.4 nM
